EC50 data for one substance are collected here from patent US20150315267A1.

In this assay the target is soluble, freshly prepared monomeric Aβ(1-40) (UniProt P05067). Kind of assay: capture ELISA, antibody immobilized, soluble monomeric Aβ(1-40) in solution. (In general: An ELISA detects its analyte on a solid surface through an enzyme-linked reagent.)

With 3D6 (antibody), the EC50 turned out to be 1 nM.

What is called EC50 is the concentration giving half of the maximal effect.
